The results in this text go back to patent US7074904.

The target of test [1] is soluble single-chain I-A^d-OVA from insect cells (SSC1 gene in pMBSC1.2, SF9 cells) (mouse (I-A^d); chicken (OVA peptide)). In words: sandwich ELISA, M5/114 capture and biotinylated AMS-32.1 detection; supernatant of virus clone C6. For orientation: An ELISA detects its analyte on a solid surface through an enzyme-linked reagent.
Test [2] has the same target. Put plainly: sandwich ELISA, M5/114 capture and biotinylated AMS-32.1 detection; supernatant of virus clone F8.
Test [3] has the same target. In words: sandwich ELISA, M5/114 capture and biotinylated AMS-32.1 detection; cotransfection mix supernatant, undiluted.
Test [4] has the same target. In words: sandwich ELISA, M5/114 capture and biotinylated AMS-32.1 detection; cotransfection mix supernatant, diluted 1:2.
For test [5] the target is unchanged. In words: sandwich ELISA, M5/114 capture and biotinylated AMS-32.1 detection; cotransfection mix supernatant, diluted 1:4.
Test [6] shares this target. Put plainly: sandwich ELISA, M5/114 capture and biotinylated AMS-32.1 detection; cotransfection mix supernatant, diluted 1:8.
The target is the same in test [7]. Put plainly: sandwich ELISA of Example 18, M5/114 capture and biotinylated AMS-32.1 detection; sc I-A^d-OVA from insect cell culture (positive control).
Test [8] has as its target soluble single-chain I-A^d-OVA with EE antibody tag (SCE1 construct) secreted by transfected NSO cells (mouse (I-A^d); chicken (OVA peptide)). In words: sandwich ELISA of Example 18, M5/114 capture and biotinylated AMS-32.1 detection; undiluted culture supernatant of E10 (SCE1 transfectant).
The target is the same in test [9]. In words: sandwich ELISA of Example 18, M5/114 capture and biotinylated AMS-32.1 detection; undiluted culture supernatant of E11 (SCE1 transfectant).
For test [10], the target named is Neuron Specific Enolase (NSE), supernatant of SF9 cells infected with recombinant Baculovirus. In words: sandwich ELISA, M5/114 capture and biotinylated AMS-32.1 detection; supernatant of SF9 cells infected with NSE Baculovirus (negative control).
For test [11], the target named is I-A^d on NSO parental cells (untransfected negative control, H-2^d background) (mouse) (UniProt P04228). In words: flow cytometry, FITC-conjugated 10-3.6 isotype control 1:100 on NSO (parental) cells.
Test [12] addresses membrane-bound single-chain I-A^d-OVA (SCT1 construct) on transfected NSO cells (mouse (I-A^d); chicken (OVA peptide)). In words: flow cytometry, FITC-conjugated 10-3.6 isotype control 1:100 on T2 (SCT1-transfectant). For orientation: A flow cytometer gives signals particle by particle.
Test [13] has the same target. In words: flow cytometry, FITC-conjugated 10-3.6 isotype control 1:100 on T6 (SCT1-transfectant).
For test [14] the target is unchanged. In words: flow cytometry, FITC-conjugated 10-3.6 isotype control 1:100 on T12 (SCT1-transfectant).
Test [15] has as its target I-A^d on NSO parental cells (untransfected negative control, H-2^d background) (mouse) (UniProt P04228). In words: flow cytometry, FITC-conjugated AMS 32.1 1:100 on NSO (parental) cells.
Test [16] has as its target membrane-bound single-chain I-A^d-OVA (SCT1 construct) on transfected NSO cells (mouse (I-A^d); chicken (OVA peptide)). Put plainly: flow cytometry, FITC-conjugated AMS 32.1 1:100 on T2 (SCT1-transfectant).
Test [17] has the same target. Put plainly: flow cytometry, FITC-conjugated AMS 32.1 1:100 on T6 (SCT1-transfectant).
The target is the same in test [18]. In words: flow cytometry, FITC-conjugated AMS 32.1 1:100 on T12 (SCT1-transfectant).
Test [19] concerns the target T cell receptor of the murine T cell hybridoma DO11.10 (I-A^d restricted, OVA peptide 323-339 specific) (mouse). In words: cell-based or functional assay.
Test [20] has the same target. Put plainly: cell-based or functional assay. This is another data set of the same source.

Like-named read-outs stand apart in the source and are kept apart here.

For the molecule “M5/114 (ATCC TIB 120) anti-IA^d (antibody)”, the Absorbance (405 nm) in [1] worked out at 1.56 absorbance; in test [2], 1.45 absorbance; in test [3] it was 0.857 absorbance; in test [4] it was 0.524 absorbance; in [5] it was 0.305 absorbance; in test [6], 0.165 absorbance. The Absorbance (405 nm) in test [7] came out at 2.44 absorbance; in test [8], 0.781 absorbance; in test [9], 0.96 absorbance; in test [10] it was 0.098 absorbance.
For “isotype matched FITC-conjugated anti-I-A^k antibody, 10-3.6 (PharMingen)”, the Mean Fluorescence in [11] was 32.1; in test [12], 22; in [13] it was 45.1; in [14], 45.9.
For the molecule “AMS-32.1 anti-IA^d (Pharmingen) (antibody)”, the Mean Fluorescence came to 280 in [15], 613 in test [16], 418 in [17] and 911 in test [18].

B1: I-A^d on NSO parental cells (untransfected negative control, H-2^d background) (protein, mouse)
MHC II alpha: EDDIEADHVGFYGTTVYQSPGDIGQYTHEFDGDELFYVDLDKKKTVWRLPEFGQLILFEPQGGLQNIAAEKHNLGILTKRSNFTPATNEAPQATVFPKSPVLLGQPNTLICFVDNIFPPVINITWLRNSKSVTDGVYETSFLVNRDHSFHKLSYLTFIPSDDDIYDCKVEHWGLEEPVLKHWEPEIPAPMSELTETVVCALGLSVGLVGIVVGTIFIIQGLRSGGTSRHPGPL
MHC II beta: GNSERHFVVQFKGECYYTNGTQRIRLVTRYIYNREEYVRYDSDVGEYRAVTELGRPDAEYWNSQPEILERTRAEVDTACRHNYEGPETSTSLRRLEQPNVAISLSRTEALNHHNTLVCSVTDFYPAKIKVRWFRNGQEETVGVSSTQLIRNGDWTFQVLVMLEMTPHQGEVYTCHVEHPSLKSPITVEWRAQSESARSKMLSGIGGCVLGVIFLGLGLFIRHRSQKGPRGPPPAGLLQ
Regarding B1, the IL-2 ELISA result (Absorbance), DO11.10 with NSO (parental cell line) as antigen presenting cell was 0.047 Absorbance in [19] and 0.078 Absorbance in test [20].

B2: I-A^d on A20 cells with added OVA 323-339 peptide (peptide-MHC, mouse)
MHC II alpha: B1 MHC II alpha
MHC II beta: B1 MHC II beta
peptide: SISQAVHAAHAEINEAGR
Consider B2, for which the IL-2 ELISA result (Absorbance), DO11.10 with A20 + OVA 323-339 peptide (positive control) came out at 1.33 Absorbance in test [19] and 1.45 Absorbance in test [20].

B3: membrane-bound single-chain I-A^d-OVA (SCT1 construct) on transfected NSO cells (peptide-MHC)
chain: TMALQIPSLLLSAAVVVLMVLSSPRTLSISQAVHAAHAEINEAGRASGGGGSGGGGNSERHFVVQFKGECYYTNGTQRIRLVTRYIYNREEYVRYDSDVGEYRAVTELGRPDAEYWNSQPEILERTRAEVDTACRHNYEGPETSTSLRRLEQPNVAISLSRTEALNHHNTLVCSVTDFYPAKIKVRWFRNGQEETVGVSSTQLIRNGDWTFQVLVMLEMTPHQGEVYTCHVEHPSLKSPITVEWTSGGGGSGGGGSGGGGSGGGGSSSEDDIEADHVGFYGTTVYQSPGDIGQYTHEFDGDELFYVDLDKKKTVWRLPEFGQLILFEPQGGLQNIAAEKHNLGILTKRSNFTPATNEAPQATVFPKSPVLLGQPNTLICFVDNIFPPVINITWLRNSKSVTDGVYETSFLVNRDHSFHKLSYLTFIPSDDDIYDCKVEHWGLEEPVLKHWEPEIPAPMSELTETVVCALGLSVGLVGIVVGTIFIIQGLRSGGTSRHPGPL
In test [19], B3 came in with an IL-2 ELISA result (Absorbance), DO11.10 with T2 (SCT1 transfectant) as antigen presenting cell of 0.758 Absorbance and an IL-2 ELISA result (Absorbance), DO11.10 with T6 (SCT1 transfectant) as antigen presenting cell of 0.307 Absorbance. Also, the IL-2 ELISA result (Absorbance), DO11.10 with T12 (SCT1 transfectant) as antigen presenting cell in test [20] came to 1.03 Absorbance.

B4: soluble single-chain I-A^d-OVA from insect cells (SSC1 gene in pMBSC1.2, SF9 cells) (peptide-MHC)
chain: TMALQIPSLLLSAAVVVLMVLSSPRTLSISQAVHAAHAEINEAGRASGGGGSGGGGNSERHFVVQFKGECYYTNGTQRIRLVTRYIYNREEYVRYDSDVGEYRAVTELGRPDAEYWNSQPEILERTRAEVDTACRHNYEGPETSTSLRRLEQPNVAISLSRTEALNHHNTLVCSVTDFYPAKIKVRWFRNGQEETVGVSSTQLIRNGDWTFQVLVMLEMTPHQGEVYTCHVEHPSLKSPITVEWTSGGGGSGGGGSGGGGSGGGGSSSEDDIEADHVGFYGTTVYQSPGDIGQYTHEFDGDELFYVDLDKKKTVWRLPEFGQLILFEPQGGLQNIAAEKHNLGILTKRSNFTPATNEAPQATVFPKSPVLLGQPNTLICFVDNIFPPVINITWLRNSKSVTDGVYETSFLVNRDHSFHKLSYLTFIPSDDDIYDCKVEHWGLEEPVLKHWSRASHHHHHH
In test [19], B4 returned an IL-2 concentration in DO11 super, 39 ng/well immobilized scIA^d-OVA (extended dilution) of 0 U/ml; an IL-2 concentration in DO11 super, 78 ng/well immobilized sc IA^d-OVA of 45 U/ml; an IL-2 concentration in DO11 super, 78 ng/well immobilized scIA^d-OVA (extended dilution) of 17 U/ml; an IL-2 concentration in DO11 super, 156 ng/well immobilized sc IA^d-OVA of 100 U/ml. In [19], this molecule had an IL-2 concentration in DO11 super, 156 ng/well immobilized scIA^d-OVA (extended dilution) of 24 U/ml; an IL-2 concentration in DO11 super, 312 ng/well immobilized sc IA^d-OVA of 109 U/ml; an IL-2 concentration in DO11 super, 312 ng/well immobilized scIA^d-OVA (extended dilution) of 35 U/ml; an IL-2 concentration in DO11 super, 625 ng/well immobilized sc IA^d-OVA of 116 U/ml. In test [19], this molecule yielded an IL-2 concentration in DO11 super, 625 ng/well immobilized scIA^d-OVA (extended dilution) of 38 U/ml; an IL-2 concentration in DO11 super, 1250 ng/well immobilized sc IA^d-OVA of 126 U/ml; an IL-2 concentration in DO11 super, 2500 ng/well immobilized sc IA^d-OVA of 143 U/ml; an IL-4 concentration in DO11 super, 78 ng/well immobilized sc IA^d-OVA of 7 U/ml. In [19], this molecule yielded an IL-4 concentration in DO11 super, 156 ng/well immobilized sc IA^d-OVA of 10 U/ml; an IL-4 concentration in DO11 super, 312 ng/well immobilized sc IA^d-OVA of 16 U/ml; an IL-4 concentration in DO11 super, 625 ng/well immobilized sc IA^d-OVA of 15 U/ml; an IL-4 concentration in DO11 super, 1250 ng/well immobilized sc IA^d-OVA of 20 U/ml. In addition, in [19], the IL-4 concentration in DO11 super, 2500 ng/well immobilized sc IA^d-OVA is 23 U/ml; the IL-r [IL-4] concentration in DO11 super, 39 ng/well immobilized scIA^d-OVA (extended dilution) came to 0 U/ml; the IL-r [IL-4] concentration in DO11 super, 78 ng/well immobilized scIA^d-OVA (extended dilution) was found to be 0.8 U/ml; the IL-r [IL-4] concentration in DO11 super, 156 ng/well immobilized scIA^d-OVA (extended dilution) turned out to be 0.9 U/ml. Also, in test [19], the IL-r [IL-4] concentration in DO11 super, 312 ng/well immobilized scIA^d-OVA (extended dilution) is 1.5 U/ml and the IL-r [IL-4] concentration in DO11 super, 625 ng/well immobilized scIA^d-OVA (extended dilution) was found to be 2 U/ml.
